Measured values taken from the supplement of paper PMC10126150.
± gives the standard deviation of the averaged measurements.

Test system: ATP
Assay: switch fluorescence ratio, 500 uM ATP over buffer (Cy3 cluster intensity, sum of 5 cycles each) (fold (ratio)); higher = stronger signal-on switching upon ATP binding; sequences stand for … in TCGTCGGCAGCGTCAGATGTGTATAAGAGACAGTTTTTTTTTTTTTTTTTTTTTTTTT…TC
Conditions: aptamer strand: ATP DNA aptamer (quencher-CACCTGGGGGAGTATTGCGGAGGAAGG + anchor), 100 nM annealed; ATP concentration: 500 uM
Summary of the method: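 The fluorescence ratio divides summed target-cycle Cy3 intensity by summed buffer-cycle Cy3 intensity for each cluster and is averaged per switch-domain sequence. Cy3-labelled switching-strand clusters on a modified Illumina MiSeq flow-cell were annealed to 100 nM quencher-labelled ATP aptamer, then imaged in selection buffer and again after 15 min with 500 uM ATP at 22 °C. Five such cycles were run, with NaOH stripping and re-annealing between them, and clusters outside 100-1000 RFU were excluded.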
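Also: ATP exposure 15 min at 22 °C before imaging.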

Row | Sequence | switch fluorescence ratio
1 | ACATAATGCC | 0.933 ± 0.047
2 | ACATACAATT | 1.23 ± 0.091
3 | ACATACTGCA | 1.29 ± 0.14
4 | ACATAGATTA | 1.03 ± 0.016
5 | ACATATAGGG | 1.04 ± 0.021
6 | ACATATTACT | 1.13 ± 0.0066
7 | ACATCAAAAT | 1.001 ± 0.0015
8 | ACATCACTAA | 1.306 ± 0.0079
9 | ACATCAGCGG | 0.958 ± 0.031
10 | ACATCCTTCG | 1.7 ± 0.25
11 | ACATCGGGTG | 1.42 ± 0.59
12 | ACATGAAGGT | 1.006 ± 0.0035
13 | ACATGCAAGC | 1.64 ± 0.12
14 | ACATGCATTA | 1.02 ± 0.026
15 | ACATGCGCGG | 0.9999 ± 0.0079
16 | ACATGCGGGG | 1.019 ± 0.01
17 | ACATGCTCCC | 1.73 ± 0.13
18 | ACATGGTTTT | 1.01 ± 0.017
19 | ACATGTTAGT | 1.006 ± 0.0028
20 | ACATGTTATA | 1 ± 0.049
21 | ACATTAAGTA | 1.02 ± 0.037
22 | ACATTAGGGT | 1.01 ± 0.012
23 | ACATTATAAT | 1.041 ± 0.0056

Row | Sequence | switch fluorescence ratio
24 | ACATTCCAAA | 1.03 ± 0.013
25 | ACATTCGCGC | 1.148 ± 0.0066
26 | ACATTCGGGC | 1.02 ± 0.041
27 | ACATTGAAAA | 0.996 ± 0.036
28 | ACATTGGCGA | 0.988 ± 0.044
29 | ACATTTAATT | 0.983 ± 0.013
30 | ACATTTAGGC | 1.048 ± 0.0088
31 | ACATTTGCAG | 1.02 ± 0.033
32 | ACATTTTGCG | 0.99926 ± 0.00068
33 | ACATTTTGTT | 0.972 ± 0.051
34 | ACCAACTCAA | 1.18 ± 0.037
35 | ACCAAGAGCG | 1.05 ± 0.023
36 | ACCAAGGGCT | 0.996 ± 0.034
37 | ACCAAGGGTG | 1.135 ± 0.0042
38 | ACCAATAAAC | 1.09 ± 0.033
39 | ACCAATCCTG | 1 ± 0.013
40 | ACCAATCGGG | 0.9917 ± 0.002
41 | ACCACAGAGC | 1.04 ± 0.051
42 | ACCACGGTGT | 2.12 ± 0.075
43 | ACCACTAAAA | 1.04 ± 0.019
44 | ACCAGGGGGT | 1.05 ± 0.09
45 | ACCAGGTATG | 1.12 ± 0.016
46 | ACCATAGGCT | 1.01 ± 0.055

Row | Sequence | switch fluorescence ratio
47 | ACCATCGGGA | 1.01 ± 0.016
48 | ACCATGCCGG | 1 ± 0.077
49 | ACCATGGGAT | 1.02 ± 0.015
50 | ACCATGGGCC | 1.01 ± 0.018
51 | ACCATGTAAG | 0.988 ± 0.035
52 | ACCATTAAAA | 1.004 ± 0.0029
53 | ACCCAGCATC | 1.49 ± 0.025
54 | ACCCAGTGAA | 1.24 ± 0.016
55 | ACCCATAGCG | 1.017 ± 0.0062
56 | ACCCCTGGGC | 1.16 ± 0.041
57 | ACCCGAAGGG | 0.948 ± 0.075
58 | ACCCGAGCAT | 1.79 ± 0.12
59 | ACCCGAGGGA | 1.05 ± 0.05
60 | ACCCGATCTT | 1 ± 0.053
61 | ACCCGCACTT | 1.82 ± 0.24
62 | ACCCGGCACA | 1.21 ± 0.051
63 | ACCCGGGATT | 1.13 ± 0.098
64 | ACCCGTAAGA | 1.22 ± 0.093
65 | ACCCGTACTT | 1.15 ± 0.033
66 | ACCCTTCTGC | 1.15 ± 0.017
67 | ACCGACGCGG | 2.55 ± 0.34
68 | ACCGCACCAA | 1.34 ± 0.051
69 | ACCGCATTGT | 1.96 ± 0.23

Row | Sequence | switch fluorescence ratio
70 | ACCGCTCAGG | 1.022 ± 0.0093
71 | ACCGCTGGTC | 1.13 ± 0.056
72 | ACCGCTGGTT | 0.97 ± 0.014
73 | ACCGCTTTTT | 1.11 ± 0.024
74 | ACCGGATGG | 1.03 ± 0.027
75 | ACCGGGCGGC | 1.05 ± 0.033
76 | ACCGGGGGTA | 0.991 ± 0.024
77 | ACCGGGTGCA | 1.36 ± 0.48
78 | ACCGGGTGGG | 1.12 ± 0.15
79 | ACCGGGTGTA | 1.3 ± 0.086
80 | ACCGTAGCGG | 1.12 ± 0.023
81 | ACCGTCAGTG | 1 ± 0.015
82 | ACCGTTGGTT | 1.02 ± 0.056
83 | ACCGTTTTTA | 1.08 ± 0.097
84 | ACCTAGCTTC | 1.12 ± 0.05
85 | ACCTCTTATA | 1.05 ± 0.014
86 | ACCTGATGTC | 1.06 ± 0.015
87 | ACCTGGAAAA | 0.999 ± 0.048
88 | ACCTGGATTG | 1.03 ± 0.017
89 | ACCTGGCAAA | 1.09 ± 0.043
90 | ACCTGGGGAT | 1.028 ± 0.0099
91 | ACCTGGGTAC | 1.03 ± 0.055
92 | ACCTGGTGTT | 1.23 ± 0.39

Row | Sequence | switch fluorescence ratio
93 | ACCTGTGATC | 1.02 ± 0.026
94 | ACCTGTTTGT | 1.01 ± 0.017
95 | ACCTTAAGGG | 1.01 ± 0.015
96 | ACCTTAGGCC | 1.07 ± 0.015
97 | ACCTTCGGGT | 1.03 ± 0.028
98 | ACCTTGTATA | 0.971 ± 0.022
99 | ACCTTTAAGC | 1.106 ± 0.01
100 | ACCTTTTCTT | 1 ± 0.011
101 | ACCTTTTGTG | 0.9903 ± 0.0046
102 | ACCTTTTTTT | 1.17 ± 0.11
103 | ACGAAATTGG | 1.04 ± 0.068
104 | ACGAACAGCG | 1.153 ± 0.004
105 | ACGAATGGTG | 1.02 ± 0.031
106 | ACGAATTGTT | 0.9848 ± 0.0026
107 | ACGACATTTT | 1.084 ± 0.0048
108 | ACGACGTGGG | 1 ± 0.024
109 | ACGAGAAGGG | 1.02 ± 0.043
110 | ACGAGAGATT | 1.42 ± 0.48
111 | ACGAGATTAT | 1.02 ± 0.014
112 | ACGAGGCCGG | 0.952 ± 0.077
113 | ACGAGGCTCA | 1.062 ± 0.0068
114 | ACGAGGGCCA | 1.004 ± 0.0086
115 | ACGATAGGCC | 1.03 ± 0.028

Row | Sequence | switch fluorescence ratio
116 | ACGATCAGGA | 1.026 ± 0.0029
117 | ACGATGACAC | 1.289 ± 0.0018
118 | ACGATGGGAG | 1.02 ± 0.021
119 | ACGATTAGGG | 0.996 ± 0.08
120 | ACGATTGTGG | 0.983 ± 0.014
121 | ACGCAGGACA | 1.35 ± 0.031
122 | ACGCAGGGGG | 0.989 ± 0.034
123 | ACGCCACTGT | 1.71 ± 0.038
124 | ACGCCATAGT | 1.25 ± 0.059
125 | ACGCCCTCCC | 2.02 ± 1.2
126 | ACGCCTTAGG | 1.05 ± 0.038
127 | ACGCGATTTT | 1.35 ± 0.46
128 | ACGCGGGGGG | 1.02 ± 0.029
129 | ACGCGGTCGG | 1.08 ± 0.044
130 | ACGCGTCAGC | 1.01 ± 0.021
131 | ACGCGTGCGT | 0.988 ± 0.016
132 | ACGCTAGCCT | 1.18 ± 0.032
133 | ACGCTGGCGA | 1.03 ± 0.021
134 | ACGCTTTAGT | 1.01 ± 0.036
135 | ACGCTTTTGG | 1.03 ± 0.023
136 | ACGGAAATTT | 1.021 ± 0.0052
137 | ACGGAATCCT | 1.19 ± 0.018
138 | ACGGAATGTT | 1.0819 ± 0.00046

Row | Sequence | switch fluorescence ratio
139 | ACGGACAATC | 1.47 ± 0.099
140 | ACGGACAGTT | 1.13 ± 0.029
141 | ACGGACATGG | 1.08 ± 0.017
142 | ACGGACTGGT | 1.18 ± 0.014
143 | ACGGACTTTG | 0.941 ± 0.063
144 | ACGGAGAGGC | 1.14 ± 0.22
145 | ACGGAGGATT | 1.04 ± 0.04
146 | ACGGAGGTGG | 0.992 ± 0.033
147 | ACGGATATTA | 1.01 ± 0.0031
148 | ACGGATGGCT | 0.984 ± 0.023
149 | ACGGATTGTG | 0.971 ± 0.0099
150 | ACGGCCTAAA | 0.98 ± 0.043
151 | ACGGCGCTGG | 1.02 ± 0.017
152 | ACGGCGTCGC | 1.02 ± 0.026
153 | ACGGCTAAGG | 1.06 ± 0.029
154 | ACGGCTGGAA | 0.969 ± 0.015
155 | ACGGCTGTCA | 0.999 ± 0.025
156 | ACGGCTGTTC | 1.01 ± 0.027
157 | ACGGGAAGGG | 1.05 ± 0.03
